According to US20210139548A1 (published 2021):
*1 amine or outer side, *2 acyl side, *3 side chain or, on linkers, in order; H or OH if unused. Side-chain parts run from the residue outwards. The star is where a group is joined. C18 diacid = O=C(O)CCCCCCCCCCCCCCCCC(=O)*; γGlu = O=C(O)[C@H](CCC(=O)[*:2])N[*:1]; Isovaleryl = CC(C)CC(=O)*; AEEA = NCCOCCOCC(=O)O

Molecular target: T1, human neuropeptide Y2 receptor (human, UniProt P49146 1-381)
T1 construct: whole, on cells; also called hNPY2 receptor; hNPY2-R
T1 sequence (looked up): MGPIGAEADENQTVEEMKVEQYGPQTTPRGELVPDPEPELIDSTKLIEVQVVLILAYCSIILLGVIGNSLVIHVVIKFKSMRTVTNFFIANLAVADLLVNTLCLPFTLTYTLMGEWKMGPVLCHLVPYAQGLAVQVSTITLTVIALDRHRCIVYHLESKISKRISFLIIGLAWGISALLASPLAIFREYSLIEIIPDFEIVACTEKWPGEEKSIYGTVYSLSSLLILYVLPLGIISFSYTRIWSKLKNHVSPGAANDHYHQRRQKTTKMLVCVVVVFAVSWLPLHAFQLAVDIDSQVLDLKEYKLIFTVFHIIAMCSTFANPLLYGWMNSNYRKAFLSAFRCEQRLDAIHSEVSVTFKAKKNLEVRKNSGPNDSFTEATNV
Experiment: radioligand competition (125I-PYY(1-36)), hNPY2R membranes
Method in brief: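 Commercial human Y2 receptor membranes (0.5 μg protein/well) were incubated with peptide for 2 h at room temperature in 50 mM HEPES, 5 mM MgCl₂, 1 mM CaCl₂, pH 7.4, with 0.2% ovalbumin. Bound radioligand was separated on PEI-soaked GF/C filters and counted by scintillation, and IC₅₀ came from nonlinear sigmoidal regression.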

B1: Compound 179 (peptide)
peptide: Isovaleryl-APAK([AEEA-AEEA-γGlu-C18 diacid])PEEDASPAELQRYYVSLRHYYNWLTRQRY-NH2
SMILES: CC(C)CC(=O)N[C@@H](C)C(=O)N1CCC[C@H]1C(=O)N[C@@H](C)C(=O)N[C@@H](CCCCNC(=O)COCCOCCNC(=O)COCCOCCNC(=O)CC[C@H](NC(=O)CCCCCCCCCCCCCCCCC(=O)O)C(=O)O)C(=O)N1CCC[C@H]1C(=O)N[C@@H](CCC(=O)O)C(=O)N[C@@H](CCC(=O)O)C(=O)N[C@@H](CC(=O)O)C(=O)N[C@@H](C)C(=O)N[C@@H](CO)C(=O)N1CCC[C@H]1C(=O)N[C@@H](C)C(=O)N[C@@H](CCC(=O)O)C(=O)N[C@@H](CC(C)C)C(=O)N[C@@H](CCC(N)=O)C(=O)N[C@@H](CCCNC(=N)N)C(=O)N[C@@H](Cc1ccc(O)cc1)C(=O)N[C@@H](Cc1ccc(O)cc1)C(=O)N[C@H](C(=O)N[C@@H](CO)C(=O)N[C@@H](CC(C)C)C(=O)N[C@@H](CCCNC(=N)N)C(=O)N[C@@H](Cc1c[nH]cn1)C(=O)N[C@@H](Cc1ccc(O)cc1)C(=O)N[C@@H](Cc1ccc(O)cc1)C(=O)N[C@@H](CC(N)=O)C(=O)N[C@@H](Cc1c[nH]c2ccccc12)C(=O)N[C@@H](CC(C)C)C(=O)N[C@H](C(=O)N[C@@H](CCCNC(=N)N)C(=O)N[C@@H](CCC(N)=O)C(=O)N[C@@H](CCCNC(=N)N)C(=O)N[C@@H](Cc1ccc(O)cc1)C(N)=O)[C@@H](C)O)C(C)C
  Ki: 1 nM

B2: Compound 180 (peptide)
peptide: Isovaleryl-APEK([AEEA-AEEA-γGlu-C18 diacid])PEEDASPEETQQYYVSLRHYYNWLTRQRY-NH2
SMILES: CC(C)CC(=O)N[C@@H](C)C(=O)N1CCC[C@H]1C(=O)N[C@@H](CCC(=O)O)C(=O)N[C@@H](CCCCNC(=O)COCCOCCNC(=O)COCCOCCNC(=O)CC[C@H](NC(=O)CCCCCCCCCCCCCCCCC(=O)O)C(=O)O)C(=O)N1CCC[C@H]1C(=O)N[C@@H](CCC(=O)O)C(=O)N[C@@H](CCC(=O)O)C(=O)N[C@@H](CC(=O)O)C(=O)N[C@@H](C)C(=O)N[C@@H](CO)C(=O)N1CCC[C@H]1C(=O)N[C@@H](CCC(=O)O)C(=O)N[C@@H](CCC(=O)O)C(=O)N[C@H](C(=O)N[C@@H](CCC(N)=O)C(=O)N[C@@H](CCC(N)=O)C(=O)N[C@@H](Cc1ccc(O)cc1)C(=O)N[C@@H](Cc1ccc(O)cc1)C(=O)N[C@H](C(=O)N[C@@H](CO)C(=O)N[C@@H](CC(C)C)C(=O)N[C@@H](CCCNC(=N)N)C(=O)N[C@@H](Cc1c[nH]cn1)C(=O)N[C@@H](Cc1ccc(O)cc1)C(=O)N[C@@H](Cc1ccc(O)cc1)C(=O)N[C@@H](CC(N)=O)C(=O)N[C@@H](Cc1c[nH]c2ccccc12)C(=O)N[C@@H](CC(C)C)C(=O)N[C@H](C(=O)N[C@@H](CCCNC(=N)N)C(=O)N[C@@H](CCC(N)=O)C(=O)N[C@@H](CCCNC(=N)N)C(=O)N[C@@H](Cc1ccc(O)cc1)C(N)=O)[C@@H](C)O)C(C)C)[C@@H](C)O
  Ki: 3.85 nM

B3: Compound 184 (peptide)
peptide: Isovaleryl-APEK([AEEA-AEEA-γGlu-C18 diacid])PEEAASPEELQRYYVTLRHYYNWLTRQRY-NH2
SMILES: CC(C)CC(=O)N[C@@H](C)C(=O)N1CCC[C@H]1C(=O)N[C@@H](CCC(=O)O)C(=O)N[C@@H](CCCCNC(=O)COCCOCCNC(=O)COCCOCCNC(=O)CC[C@H](NC(=O)CCCCCCCCCCCCCCCCC(=O)O)C(=O)O)C(=O)N1CCC[C@H]1C(=O)N[C@@H](CCC(=O)O)C(=O)N[C@@H](CCC(=O)O)C(=O)N[C@@H](C)C(=O)N[C@@H](C)C(=O)N[C@@H](CO)C(=O)N1CCC[C@H]1C(=O)N[C@@H](CCC(=O)O)C(=O)N[C@@H](CCC(=O)O)C(=O)N[C@@H](CC(C)C)C(=O)N[C@@H](CCC(N)=O)C(=O)N[C@@H](CCCNC(=N)N)C(=O)N[C@@H](Cc1ccc(O)cc1)C(=O)N[C@@H](Cc1ccc(O)cc1)C(=O)N[C@H](C(=O)N[C@H](C(=O)N[C@@H](CC(C)C)C(=O)N[C@@H](CCCNC(=N)N)C(=O)N[C@@H](Cc1c[nH]cn1)C(=O)N[C@@H](Cc1ccc(O)cc1)C(=O)N[C@@H](Cc1ccc(O)cc1)C(=O)N[C@@H](CC(N)=O)C(=O)N[C@@H](Cc1c[nH]c2ccccc12)C(=O)N[C@@H](CC(C)C)C(=O)N[C@H](C(=O)N[C@@H](CCCNC(=N)N)C(=O)N[C@@H](CCC(N)=O)C(=O)N[C@@H](CCCNC(=N)N)C(=O)N[C@@H](Cc1ccc(O)cc1)C(N)=O)[C@@H](C)O)[C@@H](C)O)C(C)C
  Ki: 2.06 nM

B4: Compound 183 (peptide)
peptide: Isovaleryl-APEK([AEEA-AEEA-γGlu-C18 diacid])PPEDASPEELQRYYVSLRHYYNWLTRQRY-NH2
SMILES: CC(C)CC(=O)N[C@@H](C)C(=O)N1CCC[C@H]1C(=O)N[C@@H](CCC(=O)O)C(=O)N[C@@H](CCCCNC(=O)COCCOCCNC(=O)COCCOCCNC(=O)CC[C@H](NC(=O)CCCCCCCCCCCCCCCCC(=O)O)C(=O)O)C(=O)N1CCC[C@H]1C(=O)N1CCC[C@H]1C(=O)N[C@@H](CCC(=O)O)C(=O)N[C@@H](CC(=O)O)C(=O)N[C@@H](C)C(=O)N[C@@H](CO)C(=O)N1CCC[C@H]1C(=O)N[C@@H](CCC(=O)O)C(=O)N[C@@H](CCC(=O)O)C(=O)N[C@@H](CC(C)C)C(=O)N[C@@H](CCC(N)=O)C(=O)N[C@@H](CCCNC(=N)N)C(=O)N[C@@H](Cc1ccc(O)cc1)C(=O)N[C@@H](Cc1ccc(O)cc1)C(=O)N[C@H](C(=O)N[C@@H](CO)C(=O)N[C@@H](CC(C)C)C(=O)N[C@@H](CCCNC(=N)N)C(=O)N[C@@H](Cc1c[nH]cn1)C(=O)N[C@@H](Cc1ccc(O)cc1)C(=O)N[C@@H](Cc1ccc(O)cc1)C(=O)N[C@@H](CC(N)=O)C(=O)N[C@@H](Cc1c[nH]c2ccccc12)C(=O)N[C@@H](CC(C)C)C(=O)N[C@H](C(=O)N[C@@H](CCCNC(=N)N)C(=O)N[C@@H](CCC(N)=O)C(=O)N[C@@H](CCCNC(=N)N)C(=O)N[C@@H](Cc1ccc(O)cc1)C(N)=O)[C@@H](C)O)C(C)C
  Ki: 0.7 nM

B5: Compound 182 (peptide)
peptide: Isovaleryl-APEK([AEEA-AEEA-γGlu-C18 diacid])PEEDGSPEELQRYYVELRHYYNWLTRQRY-NH2
SMILES: CC(C)CC(=O)N[C@@H](C)C(=O)N1CCC[C@H]1C(=O)N[C@@H](CCC(=O)O)C(=O)N[C@@H](CCCCNC(=O)COCCOCCNC(=O)COCCOCCNC(=O)CC[C@H](NC(=O)CCCCCCCCCCCCCCCCC(=O)O)C(=O)O)C(=O)N1CCC[C@H]1C(=O)N[C@@H](CCC(=O)O)C(=O)N[C@@H](CCC(=O)O)C(=O)N[C@@H](CC(=O)O)C(=O)NCC(=O)N[C@@H](CO)C(=O)N1CCC[C@H]1C(=O)N[C@@H](CCC(=O)O)C(=O)N[C@@H](CCC(=O)O)C(=O)N[C@@H](CC(C)C)C(=O)N[C@@H](CCC(N)=O)C(=O)N[C@@H](CCCNC(=N)N)C(=O)N[C@@H](Cc1ccc(O)cc1)C(=O)N[C@@H](Cc1ccc(O)cc1)C(=O)N[C@H](C(=O)N[C@@H](CCC(=O)O)C(=O)N[C@@H](CC(C)C)C(=O)N[C@@H](CCCNC(=N)N)C(=O)N[C@@H](Cc1c[nH]cn1)C(=O)N[C@@H](Cc1ccc(O)cc1)C(=O)N[C@@H](Cc1ccc(O)cc1)C(=O)N[C@@H](CC(N)=O)C(=O)N[C@@H](Cc1c[nH]c2ccccc12)C(=O)N[C@@H](CC(C)C)C(=O)N[C@H](C(=O)N[C@@H](CCCNC(=N)N)C(=O)N[C@@H](CCC(N)=O)C(=O)N[C@@H](CCCNC(=N)N)C(=O)N[C@@H](Cc1ccc(O)cc1)C(N)=O)[C@@H](C)O)C(C)C
  Ki: 3.45 nM

B6: Compound 181 (peptide)
peptide: Isovaleryl-APEK([AEEA-AEEA-γGlu-C18 diacid])PEADASPEELQRYYVALRHYYNWLTRQRY-NH2
SMILES: CC(C)CC(=O)N[C@@H](C)C(=O)N1CCC[C@H]1C(=O)N[C@@H](CCC(=O)O)C(=O)N[C@@H](CCCCNC(=O)COCCOCCNC(=O)COCCOCCNC(=O)CC[C@H](NC(=O)CCCCCCCCCCCCCCCCC(=O)O)C(=O)O)C(=O)N1CCC[C@H]1C(=O)N[C@@H](CCC(=O)O)C(=O)N[C@@H](C)C(=O)N[C@@H](CC(=O)O)C(=O)N[C@@H](C)C(=O)N[C@@H](CO)C(=O)N1CCC[C@H]1C(=O)N[C@@H](CCC(=O)O)C(=O)N[C@@H](CCC(=O)O)C(=O)N[C@@H](CC(C)C)C(=O)N[C@@H](CCC(N)=O)C(=O)N[C@@H](CCCNC(=N)N)C(=O)N[C@@H](Cc1ccc(O)cc1)C(=O)N[C@@H](Cc1ccc(O)cc1)C(=O)N[C@H](C(=O)N[C@@H](C)C(=O)N[C@@H](CC(C)C)C(=O)N[C@@H](CCCNC(=N)N)C(=O)N[C@@H](Cc1c[nH]cn1)C(=O)N[C@@H](Cc1ccc(O)cc1)C(=O)N[C@@H](Cc1ccc(O)cc1)C(=O)N[C@@H](CC(N)=O)C(=O)N[C@@H](Cc1c[nH]c2ccccc12)C(=O)N[C@@H](CC(C)C)C(=O)N[C@H](C(=O)N[C@@H](CCCNC(=N)N)C(=O)N[C@@H](CCC(N)=O)C(=O)N[C@@H](CCCNC(=N)N)C(=O)N[C@@H](Cc1ccc(O)cc1)C(N)=O)[C@@H](C)O)C(C)C
  Ki: 0.67 nM
